In experiment [1] the target is T1, C-terminal domain of Not1 (Not1C), residues 1541-2093 (S. cerevisiae, UniProt P25655 1541-2093).
T1 sequence (looked up): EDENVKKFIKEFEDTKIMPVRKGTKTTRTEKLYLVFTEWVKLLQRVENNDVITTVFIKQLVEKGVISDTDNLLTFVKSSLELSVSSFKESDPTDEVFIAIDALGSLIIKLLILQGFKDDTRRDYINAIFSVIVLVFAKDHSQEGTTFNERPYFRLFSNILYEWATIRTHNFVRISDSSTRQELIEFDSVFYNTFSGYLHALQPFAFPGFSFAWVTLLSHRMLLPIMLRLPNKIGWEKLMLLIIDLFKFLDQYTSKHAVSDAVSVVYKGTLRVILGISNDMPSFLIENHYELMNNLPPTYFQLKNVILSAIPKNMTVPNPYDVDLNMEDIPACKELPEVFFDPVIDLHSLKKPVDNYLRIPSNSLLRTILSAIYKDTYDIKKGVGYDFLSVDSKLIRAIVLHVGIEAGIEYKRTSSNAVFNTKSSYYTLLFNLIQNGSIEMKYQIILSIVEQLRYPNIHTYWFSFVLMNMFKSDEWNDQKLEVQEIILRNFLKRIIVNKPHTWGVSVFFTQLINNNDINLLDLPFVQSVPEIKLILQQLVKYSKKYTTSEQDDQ
As to the kind of experiment: pull-down.

Experiment [2] addresses T1, C-terminal domain of Not1 (Not1C), …. The experiment is described as follows: crystal structure.

B1: GST-tagged Not4C (domain or fragment, S. cerevisiae, UniProt P34909 418-477, looked up)
chain: DPYDALGNAVDFLDARLHSLSNYQKRPISIKSNIIDEETYKKYPSLFSWDKIEASKKSDN
Regarding B1, the binding result in experiment [1] is “binds”.

B2: Not4C, residues 418-477 of Not4 (domain or fragment, S. cerevisiae, UniProt P34909 418-477, looked up)
chain: B1 chain
Take B2: the binding result in experiment [2] is recorded as “binds”.

Source of the values: PMC4431670 (Structure(London, England:1993), 2015).
